Reference: paper PMC10873324, “High-throughput screening assay for PARP-HPF1 interaction inhibitors to affect DNA damage repair” (Scientific Reports, 2024)

T1: YFP-HPF1 (mCitrine fused to the N-terminus of full length HPF1) (UniProt Q9NWY4 1-346)
T1 construct: Histone PARylation Factor 1 (HPF1), full length; The methods print 'His6 tag- CFP-TEV protease site followed by full length HPF1' for the YFP-tagged HPF1; This is probably a slip for YFP, since the vector is pNIC-YFP; also called Histone PARylation Factor; source: E. coli BL21(DE3), purified (Ni-NTA IMAC, SEC); not shown: mCitrine (YFP), N-terminal, kept
T1 sequence (looked up): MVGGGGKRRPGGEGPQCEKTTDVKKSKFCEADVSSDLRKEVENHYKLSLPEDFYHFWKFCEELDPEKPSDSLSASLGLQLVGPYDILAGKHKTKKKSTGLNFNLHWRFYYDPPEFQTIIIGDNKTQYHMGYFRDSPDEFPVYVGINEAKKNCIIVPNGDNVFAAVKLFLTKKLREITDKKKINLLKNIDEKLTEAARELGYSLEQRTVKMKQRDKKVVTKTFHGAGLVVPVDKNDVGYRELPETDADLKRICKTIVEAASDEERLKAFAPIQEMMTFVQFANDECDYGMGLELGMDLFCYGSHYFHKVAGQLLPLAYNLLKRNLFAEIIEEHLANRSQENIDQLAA

B1: CFP-PARP2 (mCerulean fused to the N-terminus of the PARP2 ART domain) (domain or fragment, human, UniProt Q9UGN5-1 356-583, looked up)
chain: HPLDQHYRNLHCALRPLDHESYEFKVISQYLQSTHAPTHSDYTMTLLDLFEVEKDGEKEAFREDLHNRMLLWHGSRMSNWVGILSHGLRIAPPEAPITGYMFGKGIYFADMSSKSANYCFASRLKNTGLLLLSEVALGQCNELLEANPKAEGLLQGKHSTKGLGKMAPSSAHFVTLNGSTVPLGPASDTGILNPDGYTLNYNEYIVYNPNQVRMRYLLKVQFNFLQLW
notes: Construct order: His6 tag-CFP-TEV protease site-ART domain; source: E. coli BL21(DE3), purified (Ni-NTA IMAC, SEC); not shown: mCerulean (CFP), N-terminal, kept
B2: unlabeled HPF1 (full length) (natural protein, UniProt Q9NWY4 1-346, looked up)
chain: T1 sequence (looked up)
notes: Histone PARylation Factor 1 (HPF1), full length, without fluorescent protein; also called unlabelled full length HPF1; desalted unlabeled HPF1

Key:
[1] = target: T2, PARP1 (Homo sapiens, UniProt P09874, DEL678-787); assay: biochemical; assay type: binding
T2 construct: PARP1 ART fragment [T661-F676 + GSGSGSGG + (D788-W1014)], CFP-fused; with HPF1

[2] = target: T3, PARP2 (Homo sapiens, UniProt Q9UGN5); assay: FRET PARP2-HPF1 interaction inhibition (olaparib present); nanoDSF shift of the PARP2 ART domain ([…] to […] °C), none for HPF1; assay type: binding; design: PARP2 ART domain (CFP-fused in FRET); with HPF1
[3] = target: PARP1 ART (Homo sapiens) (UniProt P09874); conditions: cited from earlier work
[4] = target: T3, PARP2; conditions: cited from earlier work
[5] = target: T1, YFP-HPF1 (mCitrine fused to the …); assay: FRET or BRET; in solution; constant 400 nM CFP-PARP2 mixed with YFP-HPF1 250 nM to 10.5 µM, first mixed at high concentration in presence of Olaparib, salt backfilled; EmFRET by the method of Song et al.; 10 µl, 384-well plates, 4 replicates, 3 independent experiments; conditions: both partners purified
[6] = target: B1; assay: FRET or BRET; competition of the FRET pair (CFP-PARP2, YFP-HPF1) with desalted (buffer-exchanged) unlabeled HPF1; rFRET read-out; HPF1 aggregated at high concentrations without salt; conditions: both partners purified
[7] = target: B1; assay: FRET or BRET; competition of the FRET pair (400 nM CFP-PARP2, 800 nM YFP-HPF1) with increasing unlabeled HPF1 whose stock adds salt; rFRET read-out; apparent IC50; 20 µl, 384-well plates, 4 replicates; conditions: both partners purified

T2 sequence (P09874 788-1014, stated change not applied, other chains not shown): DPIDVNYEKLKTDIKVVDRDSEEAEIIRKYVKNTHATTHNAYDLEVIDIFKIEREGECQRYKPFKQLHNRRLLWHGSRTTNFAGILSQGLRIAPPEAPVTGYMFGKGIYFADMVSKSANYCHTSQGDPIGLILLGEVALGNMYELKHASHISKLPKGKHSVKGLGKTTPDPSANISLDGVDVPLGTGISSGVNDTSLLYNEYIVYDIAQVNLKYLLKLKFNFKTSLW
PARP1 ART (Homo sapiens), sequence (P09874 788-1014): as the sequence (P09874 788-1014, stated change not applied, other chains not shown) above

Molecule: CC(C)=CC[C@H](O)C1=CC(=O)c2c(O)ccc(O)c2C1=O [Alkannin]
- IC50 [1]: 16.2 µM
- IC50 [2]: 21.2 µM

Molecule: HPF1 (from UniProt Q9NWY4)
- Kd [3]: 1.5 µM
- Kd [4]: 3 µM

Molecule: CC(C)=CC[C@@H](OC(=O)C=C(C)C)C1=CC(=O)c2c(O)ccc(O)c2C1=O [Dimethylacrylshikonin]
- IC50 [1]: 29.3 µM
- IC50 [2]: 15.7 µM

Molecule: B1
- Kd [5]: 2 ± 0.18 µM

Molecule: B2
- IC50 [6]: 24 µM
- IC50 [7]: 1.5 µM
